What was measured:
[1] = target: phosphorylated human MLKL (p-MLKL) pseudokinase domain (190-471) (human) (UniProt Q8NB16); assay: SEC-SAXS; p-MLKL pseudokinase domain, 40 uL of 7.2 mg/mL, inline Superdex 200 Increase 5/150, 0.2 M NaCl, 20 mM HEPES pH 7.5, 5% v/v glycerol, 283 K
[2] = target: phosphorylated human MLKL (p-MLKL) pseudokinase domain (190-471) (human) (UniProt Q8NB16); assay: SEC; purified pseudokinase domain on Superdex 200 in 20 mM HEPES pH 7.5, 200 mM NaCl, 5% v/v glycerol
[3] = target: MLKL (mixed lineage kinase domain-like) pseudokinase domain, 190-471 (UniProt Q8NB16); assay: size-exclusion chromatography; details: reference: p-MLKL pseudokinase domain; sites T357,S358,T355,S360
[4] = target: unphosphorylated human MLKL pseudokinase domain (residues 190-471) (human) (UniProt Q8NB16); assay: SEC-SAXS; MLKL pseudokinase domain:Mb27 complex pre-purified on Superdex 75, 50 uL of 5.6 mg/mL, inline Superdex 200 Increase 5/150, 0.2 M NaCl, 20 mM HEPES pH 7.5, 5% v/v glycerol, 283 K
[5] = target: full-length human MLKL (residues 2-471) T357E/S358E mutant (human) (UniProt Q8NB16); assay: SEC; full-length MLKL (WT or T357E/S358E) co-expressed with RIPK3 kinase domain in Sf21, purified by GST on MLKL, tag cleaved, HiLoad Superdex 200 in SEC buffer; fractions on reducing SDS-PAGE
[6] = target: the molecule itself; assay: SEC; full-length MLKL expressed alone in Sf21, purified, HiLoad Superdex 200 in SEC buffer
[7] = target: the molecule itself; assay: SEC; full-length MLKL (WT or T357E/S358E) co-expressed with RIPK3 kinase domain in Sf21, purified by GST on MLKL, tag cleaved, HiLoad Superdex 200 in SEC buffer; fractions on reducing SDS-PAGE

phosphorylated human MLKL (p-MLKL) pseudokinase domain (190-471) (from UniProt Q8NB16 190-471) (domain or fragment)
stoichiometry N [1]: 2 | stoichiometry N [2]: 2

MLKL (mixed lineage kinase domain-like) pseudokinase domain, 190-471 (from UniProt Q8NB16) λ phosphatase treated p-MLKL
binding against the reference [3]: lost

unphosphorylated human MLKL pseudokinase domain (residues 190-471) (from UniProt Q8NB16 190-471) (domain or fragment)
stoichiometry N [4]: 2

human RIPK3 kinase domain (residues 1-316; C3S, C110A), co-expressed with full-length MLKL (from UniProt Q9Y572 1-316) (domain or fragment)
stoichiometry N (RIPK3 per MLKL (1:1)) [5]: 1

B1: recombinant full-length human MLKL (residues 2-471), wild-type (natural protein, UniProt Q8NB16 2-471, looked up)
chain: ENLKHIITLGQVIHKRCEEMKYCKKQCRRLGHRVLGLIKPLEMLQDQGKRSVPSEKLTTAMNRFKAALEEANGEIEKFSNRSNICRFLTASQDKILFKDVNRKLSDVWKELSLLLQVEQRMPVSPISQGASWAQEDQQDADEDRRAFQMLRRDNEKIEASLRRLEINMKEIKETLRQYLPPKCMQEIPQEQIKEIKKEQLSGSPWILLRENEVSTLYKGEYHRAPVAIKVFKKLQAGSIAIVRQTFNKEIKTMKKFESPNILRIFGICIDETVTPPQFSIVMEYCELGTLRELLDREKDLTLGKRMVLVLGAARGLYRLHHSEAPELHGKIRSSNFLVTQGYQVKLAGFELRKTQTSMSLGTTREKTDRVKSTAYLSPQELEDVFYQYDVKSEIYSFGIVLWEIATGDIPFQGCNSEKIRKLVAVKRQQEPLGEDCPSELREIIDECRAHDPSVRPSVDEILKKLSTFSK
notes: human MLKL, called full-length, residues 2-471; Expressed alone it elutes primarily as monomers with a smaller proportion of tetramers; with Mb27 all as tetramers; also called full-length MLKL; MLKL alone; source: Sf21 insect cells, expressed alone or co-expressed with Mb27, purified (glutathione resin, TEV cleavage, SEC); not shown: GST, N-terminal, cleaved
stoichiometry N [6]: 4

B2: full-length human p-MLKL tetramer (wild-type MLKL 2-471 co-expressed with RIPK3 kinase domain) (natural protein, UniProt Q8NB16 2-471, looked up)
chain: ENLKHIITLGQVIHKRCEEMKYCKKQCRRLGHRVLGLIKPLEMLQDQGKRSVPSEKLTTAMNRFKAALEEANGEIEKFSNRSNICRFLTASQDKILFKDVNRKLSDVWKELSLLLQVEQRMPVSPISQGASWAQEDQQDADEDRRAFQMLRRDNEKIEASLRRLEINMKEIKETLRQYLPPKCMQEIPQEQIKEIKKEQLSGSPWILLRENEVSTLYKGEYHRAPVAIKVFKKLQAGSIAIVRQTFNKEIKTMKKFESPNILRIFGICIDETVTPPQFSIVMEYCELGTLRELLDREKDLTLGKRMVLVLGAARGLYRLHHSEAPELHGKIRSSNFLVTQGYQVKLAGFELRKTQTSMSLGTTREKTDRVKSTAYLSPQELEDVFYQYDVKSEIYSFGIVLWEIATGDIPFQGCNSEKIRKLVAVKRQQEPLGEDCPSELREIIDECRAHDPSVRPSVDEILKKLSTFSK
modifications: phosphorylated by co-expressed RIPK3 (sites not printed for the full-length protein); disulfide-linked via C184
notes: human MLKL, called full-length, residues 2-471; The purified tetramer carries sub-stoichiometric RIPK3 kinase domain; also called wild-type p-MLKL tetramer; MLKL (WT):RIPK3; source: Sf21 insect cells, co-expressed with RIPK3 kinase domain, purified (glutathione resin, TEV cleavage, SEC); not shown: GST, N-terminal, cleaved
stoichiometry N [7]: 4
